Reference: patent publication US20150329594A1 (University of California, published 2015)
“And” between values parts separate entries of the source, which are not always exact repeats. Equal entries are not always repeated. Where two headings read alike, the source gives them in different places. One block for each binder: values may come before it. Bridge positions count the residues as written; N and C are the ends. Square brackets hold non-standard residues; d marks the D form. Trp(1-Me) = Cn1cc(C[C@H](N)C(=O)O)c2ccccc21

What was measured:
Experiment in all cases: cell-based or functional assay
[1] = molecular target: T1, human complement protein C3 (human, UniProt P01024 23-1663)
[2] = molecular target: T1, human complement protein C3; remark: listed apart in the source
[3] = molecular target: T1, human complement protein C3; remark: listed apart in the source
[4] = molecular target: T1, human complement protein C3; remark: listed apart in the source

T1 sequence (P01024 23-1663 limits assumed): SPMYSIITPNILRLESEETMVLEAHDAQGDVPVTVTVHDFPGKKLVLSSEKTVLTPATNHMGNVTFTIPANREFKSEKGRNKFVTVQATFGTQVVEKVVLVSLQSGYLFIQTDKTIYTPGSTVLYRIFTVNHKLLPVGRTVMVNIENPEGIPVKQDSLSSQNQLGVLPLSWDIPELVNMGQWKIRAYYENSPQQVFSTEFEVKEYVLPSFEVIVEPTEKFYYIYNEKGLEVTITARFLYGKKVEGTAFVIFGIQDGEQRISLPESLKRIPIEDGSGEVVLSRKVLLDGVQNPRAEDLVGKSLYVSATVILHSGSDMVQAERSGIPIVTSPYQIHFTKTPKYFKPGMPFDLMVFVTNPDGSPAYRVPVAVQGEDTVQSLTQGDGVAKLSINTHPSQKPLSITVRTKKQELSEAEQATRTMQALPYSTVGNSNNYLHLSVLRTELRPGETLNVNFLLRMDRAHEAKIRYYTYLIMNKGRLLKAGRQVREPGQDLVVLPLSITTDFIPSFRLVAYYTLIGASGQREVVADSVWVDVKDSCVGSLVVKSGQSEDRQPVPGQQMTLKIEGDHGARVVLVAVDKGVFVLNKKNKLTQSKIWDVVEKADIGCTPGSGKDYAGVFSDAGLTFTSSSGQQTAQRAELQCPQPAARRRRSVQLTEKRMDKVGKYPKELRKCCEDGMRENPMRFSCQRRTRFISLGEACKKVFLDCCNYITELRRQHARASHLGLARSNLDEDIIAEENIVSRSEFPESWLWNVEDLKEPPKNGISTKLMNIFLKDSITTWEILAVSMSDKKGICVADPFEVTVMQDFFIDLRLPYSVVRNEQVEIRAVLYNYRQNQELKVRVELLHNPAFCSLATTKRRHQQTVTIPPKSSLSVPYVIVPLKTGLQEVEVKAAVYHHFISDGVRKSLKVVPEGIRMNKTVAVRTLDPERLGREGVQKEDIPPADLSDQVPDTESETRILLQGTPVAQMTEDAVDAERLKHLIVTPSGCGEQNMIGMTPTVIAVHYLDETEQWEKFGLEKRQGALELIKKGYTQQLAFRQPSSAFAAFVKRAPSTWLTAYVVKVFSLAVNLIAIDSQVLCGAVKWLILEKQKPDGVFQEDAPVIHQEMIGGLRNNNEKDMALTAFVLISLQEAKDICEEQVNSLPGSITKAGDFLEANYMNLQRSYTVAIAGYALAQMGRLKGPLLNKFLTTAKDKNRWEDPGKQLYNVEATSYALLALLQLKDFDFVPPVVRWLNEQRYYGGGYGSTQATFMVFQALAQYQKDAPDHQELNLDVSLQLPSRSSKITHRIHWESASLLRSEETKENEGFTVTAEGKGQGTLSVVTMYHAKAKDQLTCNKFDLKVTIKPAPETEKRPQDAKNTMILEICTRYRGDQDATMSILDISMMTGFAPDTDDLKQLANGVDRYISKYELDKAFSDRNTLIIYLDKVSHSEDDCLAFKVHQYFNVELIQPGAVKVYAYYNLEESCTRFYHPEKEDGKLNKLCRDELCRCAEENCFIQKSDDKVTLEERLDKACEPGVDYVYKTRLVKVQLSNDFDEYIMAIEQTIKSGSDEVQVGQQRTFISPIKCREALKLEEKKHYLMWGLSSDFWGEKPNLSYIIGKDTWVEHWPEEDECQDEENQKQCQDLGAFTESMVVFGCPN

IC50 (assay not named in Table 7; preliminary C3b ELISA by paragraph 235) [1]: 300000 nM
C3b ELISA IC50 [2]: 1420 nM
C5b-9 ELISA IC50 [2]: 1070 nM
RPE cell assay medium C5b-9 ELISA, % of positive control (peptide at 1 µM) [3]: 50 % of positive control
RPE cell-based assay, confocal imaging of deposit-associated C5b-9, % of positive control (peptide at 1 µM) [3]: 20 % of positive control
C3b ELISA IC50 [4]: 1400 nM and 500 nM
C5b-9 ELISA IC50 [4]: 1100 nM and 600 nM
B1: Peptide III, Ac-RCVme…-NH2 (peptide)
peptide: Ac-RCV[Trp(1-Me)]QDWGAHRCT-NH2
modifications: disulfide 2-12
SMILES: CC(=O)N[C@@H](CCCNC(=N)N)C(=O)N[C@H]1CSSC[C@@H](C(=O)N[C@H](C(N)=O)[C@@H](C)O)NC(=O)[C@H](CCCNC(=N)N)NC(=O)[C@H](Cc2c[nH]cn2)NC(=O)[C@H](C)NC(=O)CNC(=O)[C@H](Cc2c[nH]c3ccccc23)NC(=O)[C@H](CC(=O)O)NC(=O)[C@H](CCC(N)=O)NC(=O)[C@H](Cc2cn(C)c3ccccc23)NC(=O)[C@H](C(C)C)NC1=O
Hemolytic assay IC50 [2]: 2250 nM

IC50 (assay not named in Table 7; preliminary C3b ELISA by paragraph 235) [1]: 250000 nM
C3b ELISA IC50 [2]: 2580 nM
C5b-9 ELISA IC50 [2]: 2020 nM
RPE cell assay medium C5b-9 ELISA, % of positive control (peptide at 1 µM) [3]: 61.4 % of positive control
RPE cell-based assay, confocal imaging of deposit-associated C5b-9, % of positive control (peptide at 1 µM) [3]: 55.3 % of positive control
C3b ELISA IC50 [4]: 2600 nM and 1100 nM
C5b-9 ELISA IC50 [4]: 2000 nM and 1000 nM
Lysis IC50 [4]: 3300 nM and 1200 nM
B2: Peptide I, Ac-RCVWQDWGAHRCT-NH2 (peptide)
peptide: Ac-RCVWQDWGAHRCT-NH2
modifications: disulfide 2-12
SMILES: CC(=O)N[C@@H](CCCNC(=N)N)C(=O)N[C@H]1CSSC[C@@H](C(=O)N[C@H](C(N)=O)[C@@H](C)O)NC(=O)[C@H](CCCNC(=N)N)NC(=O)[C@H](Cc2c[nH]cn2)NC(=O)[C@H](C)NC(=O)CNC(=O)[C@H](Cc2c[nH]c3ccccc23)NC(=O)[C@H](CC(=O)O)NC(=O)[C@H](CCC(N)=O)NC(=O)[C@H](Cc2c[nH]c3ccccc23)NC(=O)[C@H](C(C)C)NC1=O
Hemolytic assay IC50 [2]: 3330 nM

IC50 (assay not named in Table 7; preliminary C3b ELISA by paragraph 235) [1]: 620000 nM
C3b ELISA IC50 [2]: 1740 nM
C5b-9 ELISA IC50 [2]: 1130 nM
RPE cell assay medium C5b-9 ELISA, % of positive control (peptide at 1 µM) [3]: 44.6 % of positive control
RPE cell-based assay, confocal imaging of deposit-associated C5b-9, % of positive control (peptide at 1 µM) [3]: 14.8 % of positive control
C3b ELISA IC50 [4]: 1700 nM and 600 nM
C5b-9 ELISA IC50 [4]: 1100 nM and 600 nM
B3: Peptide VI, Ac-RS-ICVme…-NH2 (peptide)
peptide: RSICVXQDWGAHRCT
modifications: N-terminal acetyl; C-terminal amide; disulfide bridge Cys2-Cys12; meW (Trp methylated at the indole amide position) at position 4 (filing's numbering from -1; 6th residue of the chain)
Hemolytic assay IC50 [2]: 2230 nM
